Test results from the supplement of paper PMC9732359.
± gives the uncertainty stated by the source.

Assay: protein stability index of a GFP-peptide fusion (yeast GPS) (PSI 1-4); higher = more stable; sorted into four equal gates, so the index is relative within each strain
Procedure, shortened: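 Tiled 17-residue yeast protein peptides were fused downstream of GFP in a plasmid that also expresses Cherry, and the pooled library was carried in yeast. Mid-log cultures in leucine-free medium were sorted into four equal gates by GFP/Cherry fluorescence ratio, and plasmids from each gate were PCR-amplified and Illumina-sequenced, with reads assigned to strains by barcodes. The protein stability index for each peptide was each gate's read frequency times its gate number, summed.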

Sequence | protein stability index (doa10∆) | protein stability index (pdr5∆) | protein stability index (san1∆) | protein stability index (ubr1∆)
NIKFLSKLEGTINKAVQ [ESC2] | 2.86 ± 0.11 | 3.35 ± 0.14 | 2.72 ± 0.1 | 2.91 ± 0.1
EDGLGPLMAKSVKKAGA [ARP7] |  | 3.48 ± 0.27 |  | 3.27 ± 0.14
AASLGDMVMATVKKGKP [RPL23A] | 2.6 ± 0.1 | 1.96 ± 0.087 | 3.5 ± 0.099 | 2.91 ± 0.078
NNLEPRQTTSNTGLLNK [RPN11] | 3.2 ± 0.062 | 3.24 ± 0.061 | 3.14 ± 0.044 | 3.32 ± 0.046
LERLTLVFCKHITSVPI [GRR1] | 1.47 ± 0.057 | 1.42 ± 0.084 | 1.17 ± 0.14 | 1.44 ± 0.047
GAKQTQGGAMNKKSEQA [SRP72] | 2.77 ± 0.067 | 3.07 ± 0.07 | 3.26 ± 0.049 | 3.47 ± 0.054
DMPSLRLIDLSGCENIT [GRR1] | 2.33 ± 0.083 | 2.7 ± 0.097 | 2.45 ± 0.094 | 2.65 ± 0.09
FNRLKKQAHEKLDASKK [YIL149C/MLP2] | 2.95 ± 0.086 | 3.08 ± 0.099 | 3.41 ± 0.069 | 3.14 ± 0.082
MAAQKSFRIKQKMAKAK [RPL39] | 2.75 ± 0.072 | 2.97 ± 0.11 | 2.25 ± 0.083 | 2.74 ± 0.08
QQKLNTRMQRGHRADVG [REC8] | 2.84 ± 0.16 | 2.85 ± 0.096 | 2.84 ± 0.15 | 3.3 ± 0.088
DYQVQGLNWLISLHENK [ISW2] | 1.53 ± 0.052 | 2.15 ± 0.058 | 1.64 ± 0.078 | 2.19 ± 0.054
KTAMAELALLNHWRQNK [BRR2] | 1.39 ± 0.082 | 1.79 ± 0.12 | 1.26 ± 0.17 | 1.88 ± 0.062
SKALNSILESSMFLRID [RGR1] | 2.42 ± 0.16 | 2.67 ± 0.11 | 2.08 ± 0.11 | 2.83 ± 0.082
EPEFHALSQSSLLKTKL [RRI1] | 2.15 ± 0.042 | 2.69 ± 0.039 | 2.39 ± 0.042 | 2.24 ± 0.037
MIIDEGHRMKNAQSKLS [SNF2] | 1.45 ± 0.072 | 1.98 ± 0.061 | 1.67 ± 0.089 | 1.93 ± 0.089
GGFTAYGGADYGEATSP [RPO21] | 1.79 ± 0.093 | 1.9 ± 0.069 | 1.98 ± 0.099 | 2.01 ± 0.068
MVVQKYKLSTVVLRLYL [GRR1] | 1.66 ± 0.069 | 1.58 ± 0.049 | 1.38 ± 0.081 | 1.64 ± 0.068
HPNRVLEHLHSTAFQNT [COR1] | 2.79 ± 0.041 | 2.92 ± 0.047 | 2.4 ± 0.051 | 2.92 ± 0.045
ASLNLLQLAPGAHLGRF [RPL4A] | 3.33 ± 0.16 | 3.03 ± 0.15 | 3.18 ± 0.092 | 3.26 ± 0.076
GLKRSQLDEFKNKYLKD [SWP82] | 3.11 ± 0.13 | 2.89 ± 0.21 | 2.89 ± 0.12 | 2.69 ± 0.17
KSDEAKWKPVLSHIVYF [RPN5] | 2.29 ± 0.067 | 2.21 ± 0.062 | 2.23 ± 0.058 | 2.03 ± 0.047
GPSSVHNAKNGTLDKNS [SNF2] | 2.66 ± 0.22 | 3.03 ± 0.22 |  | 2.74 ± 0.17
QDLPKINDKRANLMLVM [SRB4] | 1.91 ± 0.073 | 1.88 ± 0.068 | 1.83 ± 0.14 | 1.73 ± 0.063
AKKTIQNPLNKSQNTAL [SIR4] | 3.02 ± 0.058 | 3.1 ± 0.054 | 2.99 ± 0.042 | 3.08 ± 0.045
NIVSDAGANDTSNNETN [GRR1] | 2.79 ± 0.051 | 2.37 ± 0.2 | 1.82 ± 0.15 | 2.71 ± 0.099
DILAKLFSLEKPNLNYF [SWI1] | 2.02 ± 0.056 | 1.96 ± 0.05 | 1.96 ± 0.063 | 2.08 ± 0.044
